Experiment [1] addresses T1, latrunculin B bound actin (A. castellani actin monomer) (A. castellani). The experiment can be described thus: fluorescence polarisation.
Experiment [2] deals with T1, latrunculin B bound actin (A. …). The experiment is described as follows: fluorescence polarisation. The source holds these as a separate data set.
Experiment [3] addresses actin filaments (polymerized A. castellani actin) (A. castellani). The experiment is described as follows: steady state polymerization titration.

Where two headings read alike, the source gives them in different places.

Here are results for three molecules from article PMC4324353.

KKDAHAMILEFIRSRPPLKKASDRQLGPPRMCEPS (domain or fragment, modifications not checked) [Spir third WH2 domain with Linker 3 (SC3)] yielded a Kd in experiment [1] of 110 nM.
With WARFWVQVIDELRRGVRLKKSNHERT (domain or fragment, modifications not checked) [Spir first WH2 domain (SA)], the results for the Kd in experiment [1] and in experiment [2] were 1140 nM and 90 to 1130 nM, respectively.
For KKDAHAMILEFIRSRPPLKKA (domain or fragment, modifications not checked) [Spir third WH2 domain (Spir-C, SC)], the Kd in experiment [1] came out at 210 nM; in experiment [3], 2000 nM.
